Measured values: US10300024B2, “Proteinoid compounds, process of preparing same and uses thereof” (Bar-Ilan University, priority 2015, dated 2019)

How the values were obtained:
[1] = Photostability under xenon lamp illumination; assay type: physicochemical; conditions: continuous illumination, 20 min
Method: An aqueous solution of ICG ([…]) in PBS was prepared, and the fluorescence intensity with λex set at 780 nm and λem set at 800 nm was measured. A dispersion of NIR fluorescent P(EF-PLLA) nanoparticles in PBS was prepared, and diluted to give a similar fluorescence intensity to the dye at the same wavelengths. The excitation and emission slits were opened to 20 nm and 5 nm, respectively. Each of the samples was illuminated continuously with a xenon lamp, and the fluorescence intensity was measured over a period of 20 min by a Cary Eclipse fluorescence spectrophotometer (Agilent Technologies Inc.). Intensity values were normalized for comparison.

[2] = cited from earlier work
[3] = system: HCT116 human colon cancer cells; test: XTT cell viability, HCT116; assay type: cell-based
Method: HCT116 human colon cancer cells were treated with 0.01 mg/mL NPs, hollow or containing 1.66 μg Dox, non-conjugated and conjugated to 35 ng TRAIL. Free Dox, free TRAIL and PBS served as control groups. Absorption was measured for all samples, each in six, with TECAN spectrophotometer to determine the cell viability. […] It was chosen to continue with the TRAIL-PEG-Dox NPs, as PEGylation modifies the physical and chemical properties of the drug, and can decrease immunogenicity and improve drug solubility.

Molecule: CC1(C)C(/C=C/C=C/C=C/C=C2\N(CCCCS(=O)(=O)O)c3ccc4ccccc4c3C2(C)C)=[N+](CCCCS(=O)(=O)[O-])c2ccc3ccccc3c21 [free ICG, indocyanine green]
- fluorescence intensity during illumination [1]: decreased significantly

Molecule: N[C@@H](Cc1c[nH]cn1)C(=O)O [histidine]
- pKa of α-amine group [2]: 9.33

B1: PEG-TRAIL NPs: hollow NPs (without Dox) conjugated to TRAIL via PEG (conjugate, UniProt P50591 1-281, looked up)
Tumor necrosis factor ligand …: MAMMEVQGGPSLGQTCVLIVIFTVLLQSLCVAVTYVYFTNELKQMQDKYSKSGIACFLKEDDSYWDPNDEESMNSPCWQVKWQLRQLVRKMILRTSEETISTVQEKQQNISPLVRERGPQRVAAHITGTRGRSNTLSSPNSKNEKALGRKINSWESSRSGHSFLSNLHLRNGELVIHEKGFYYIYSQTYFRFQEEIKENTKNDKQMVQYIYKYTSYPDPILLMKSARNSCWSKDAEYGLYSIYQGGIFELKENDRIFVSVTNEHLIDMDHEASFFGAFLVG
modifications: PEG-linked to hollow nanoparticles
- toxic effect ([3]; 0.01 mg/mL NPs, 24 h and 72 h): did not have a toxic effect

B2: free TRAIL: TNF-related apoptosis-inducing ligand (protein, UniProt P50591 1-281, looked up)
Tumor necrosis factor ligand …: MAMMEVQGGPSLGQTCVLIVIFTVLLQSLCVAVTYVYFTNELKQMQDKYSKSGIACFLKEDDSYWDPNDEESMNSPCWQVKWQLRQLVRKMILRTSEETISTVQEKQQNISPLVRERGPQRVAAHITGTRGRSNTLSSPNSKNEKALGRKINSWESSRSGHSFLSNLHLRNGELVIHEKGFYYIYSQTYFRFQEEIKENTKNDKQMVQYIYKYTSYPDPILLMKSARNSCWSKDAEYGLYSIYQGGIFELKENDRIFVSVTNEHLIDMDHEASFFGAFLVG
- cell viability course ([3]; after 72 h): recovery in the cell viability
- toxicity ([3]; over 24 h): good toxicity
